Measured values from the RNAGym collection of RNA variant scans (doi:10.7554/elife.80360).

B1: CPEB3 Ribozyme (parent)
chain: GGGGGCCACAGCAGAAGCGUUCACGUCGCGGCCCCUGUCAGAUUCUGGUGAAUCUGCGAAUUCUGCUGU

Variants of: B1
Test: self-cleavage, relative activity (ratio to wild type); higher = more cleavage; co-transcriptional

Variant	self-cleavage
GGGGGCCACAGCAGAAGCGUUCACGUCCCGGCCCCUGUCAGAUUCUGGUGAAUCUGCGUAUUCUGCUGU [G28C A59U]	0.189
GGGGGCCACAGCAGAAGCGUUCACGUCCCGGCCCCUGUCAGAUUCUGGUGAAUCUGCGGAUUCUGCUGU [G28C A59G]	0.132
GGGGGCCACAGCAGAAGCGUUCACGUCCCGGCCCCUGUCAGAUUCUGGUGAAUCUGCGCAUUCUGCUGU [G28C A59C]	0.16
GGGGGCCACAGCAGAAGCGUUCACGUCACGGCCCCUGUCAGAUUCUGGUGAAUCUGCGAAAUCUGCUGU [G28A U61A]	0.193
GGGGGCCACAGCAGAAGCGUUCACGUCACGGCCCCUGUCAGAUUCUGGUGAAUCUGCGAACUCUGCUGU [G28A U61C]	0.137
GGGGGCCACAGCAGAAGCGUUCACGUCACGGCCCCUGUCAGAUUCUGGUGAACCUGCGAAUUCUGCUGU [G28A U53C]	0.154
GGGGGCCACAGCAGAAGCGUUCACGUCACGGCCCCUGUCAGAUUCUGGUGAAGCUGCGAAUUCUGCUGU [G28A U53G]	0.203
GGGGGCCACAGCAGAAGCGUUCACGUCCCGGACCCUGUCAGAUUCUGGUGAAUCUGCGAAUUCUGCUGU [G28C C32A]	0.181
GGGGGCCACAGCAGAAGCGUUCACGUCACGGCCCCUGUCAGAUUCUGGUGAAUCUGCGAAUUCUGCGGU [G28A U67G]	0.232
GGGGGCCACAGCAGAAGCGUUCACGUCACGGCCCCUGUCAGAUUCUGGUGAAUCUGCGAAUUCUGCCGU [G28A U67C]	0.307
GGGGGCCACAGCAGAAGCGUUCACGUCACGGCCCCUGUCAGAUUCUGGUGAAUCUGCGAAUUCUGCAGU [G28A U67A]	0.202
GGGGGCCACAGCAGAAGCGUUCACGUCACGGCCCCUGUCAGAUUCUGGCGAAUCUGCGAAUUCUGCUGU [G28A U49C]	0.238
GGGGGCCACAGCAGAAGCGUUCACGUCACGGCCCCUGUCAGAUUCUGGGGAAUCUGCGAAUUCUGCUGU [G28A U49G]	0.22
GGGGGCCACAGCAGAAGCGUUCACGUCACGGCCCCUGUCAGAUACUGGUGAAUCUGCGAAUUCUGCUGU [G28A U44A]	0.195
GGGGGCCACAGCAGAAGCGUUCACGUCACGGCCCCUGUCAGAUGCUGGUGAAUCUGCGAAUUCUGCUGU [G28A U44G]	0.136
GGGGGCCACAGCAGAAGCGUUCACGUCACGGCCCCUGUCAGAUCCUGGUGAAUCUGCGAAUUCUGCUGU [G28A U44C]	0.176
GGGGGCCACAGCAGAAGCGUUCACGUCCCGGCCCCUGUCAGUUUCUGGUGAAUCUGCGAAUUCUGCUGU [G28C A42U]	0.25
GGGGGCCACAGCAGAAGCGUUCACGUCACGGCCCCUGUCAGAUUCGGGUGAAUCUGCGAAUUCUGCUGU [G28A U46G]	0.146
GGGGGCCACAGCAGAAGCGUUCACGUCACGGCCCCUGUCAGAUUCAGGUGAAUCUGCGAAUUCUGCUGU [G28A U46A]	0.184
GGGGGCCACAGCAGAAGCGUUCACGUCACGGCCCCUGUCAGAUUCCGGUGAAUCUGCGAAUUCUGCUGU [G28A U46C]	0.192

Variant	self-cleavage
GGGGGCCACAGCAGAAGCGUUCACGUCCCGGCCCCUGUCAGAUUCUGGUGAAUCUGCGAUUUCUGCUGU [G28C A60U]	0.19
GGGGGCCACAGCAGAAGCGUUCACGUCCCGGCCCCUGUCAGAUUCUGGUGAAUCUGCGAGUUCUGCUGU [G28C A60G]	0.168
GGGGGCCACAGCAGAAGCGUUCACGUCCGGGCCCCUGUCAGAUUCUGGUGAAUCUGCGAAUUCUGCUGU [G28C C29G]	0.153
GGGGGCCACAGCAGAAGCGUUCACGUCCAGGCCCCUGUCAGAUUCUGGUGAAUCUGCGAAUUCUGCUGU [G28C C29A]	0.144
GGGGGCCACAGCAGAAGCGUUCACGUCCUGGCCCCUGUCAGAUUCUGGUGAAUCUGCGAAUUCUGCUGU [G28C C29U]	0.137
GGGGGCCACAGCAGAAGCGUUCACGUCACGGCCCCUGUCAGAUUCUGGUGAAUCUGCGAAUUCUGCUGA [G28A U69A]	0.342
GGGGGCCACAGCAGAAGCGUUCACGUCACGGCCCCUGUCAGAUUCUGGUGAAUCUGCGAAUUCUGCUGG [G28A U69G]	0.357
GGGGGCCACAGCAGAAGCGUUCACGUCACGGCCCCUGUCAGAUUCUGGUGAAUCUGCGAAUUCUGCUGC [G28A U69C]	0.412
GGGGGCCACAGCAGAAGCGUUCACGUCCCGGCCCCUGUCGGAUUCUGGUGAAUCUGCGAAUUCUGCUGU [G28C A40G]	0.211
GGGGGCCACAGCAGAAGCGUUCACGUCCCGGCCCCUGUCUGAUUCUGGUGAAUCUGCGAAUUCUGCUGU [G28C A40U]	0.215
GGGGGCCACAGCAGAAGCGUUCACGUCCCGGCCCCUGUCCGAUUCUGGUGAAUCUGCGAAUUCUGCUGU [G28C A40C]	0.218
GGGGGCCACAGCAGAAGCGUUCACGUCACGGCCCCUGUCAGAUUCUGGUGAAUCUGCGAAUACUGCUGU [G28A U62A]	0.203
GGGGGCCACAGCAGAAGCGUUCACGUCACGGCCCCUGUCAGAUUCUGGUGAAUCUGCGAAUCCUGCUGU [G28A U62C]	0.218
GGGGGCCACAGCAGAAGCGUUCACGUCACGGCCCCUGUCAGAUUCUGGUGAAUCCGCGAAUUCUGCUGU [G28A U55C]	0.214
GGGGGCCACAGCAGAAGCGUUCACGUCCCGGCCCCUGUCAGAUUCUGGUGCAUCUGCGAAUUCUGCUGU [G28C A51C]	0.119
GGGGGCCACAGCAGAAGCGUUCACGUCCCGGCCCCUGUCAGAUUCUGGUGGAUCUGCGAAUUCUGCUGU [G28C A51G]	0.247
GGGGGCCACAGCAGAAGCGUUCACGUCCCGGCCCCUGUCAGAUUCUGGUGUAUCUGCGAAUUCUGCUGU [G28C A51U]	0.165
GGGGGCCACAGCAGAAGCGUUCACGUCACGGCCCCUGUCAGAUUCUGGUGAAUCUGCGAAUUCAGCUGU [G28A U64A]	0.245
GGGGGCCACAGCAGAAGCGUUCACGUCCCGGCCCCUGUCAGAUUCUGGUGAUUCUGCGAAUUCUGCUGU [G28C A52U]	0.197
